Data on five molecules can be found in patent US20070128187A1 (GENOME THERAPEUTICS, published 2007).

The target in test [1] is T1, Zmax1/LRP5 ligand binding domain bait LBD1 (Leu969-Pro1376) (human, UniProt O75197 969-1376).
T1 construct: also called pDBleuLBD1; not shown: not described
T1 sequence: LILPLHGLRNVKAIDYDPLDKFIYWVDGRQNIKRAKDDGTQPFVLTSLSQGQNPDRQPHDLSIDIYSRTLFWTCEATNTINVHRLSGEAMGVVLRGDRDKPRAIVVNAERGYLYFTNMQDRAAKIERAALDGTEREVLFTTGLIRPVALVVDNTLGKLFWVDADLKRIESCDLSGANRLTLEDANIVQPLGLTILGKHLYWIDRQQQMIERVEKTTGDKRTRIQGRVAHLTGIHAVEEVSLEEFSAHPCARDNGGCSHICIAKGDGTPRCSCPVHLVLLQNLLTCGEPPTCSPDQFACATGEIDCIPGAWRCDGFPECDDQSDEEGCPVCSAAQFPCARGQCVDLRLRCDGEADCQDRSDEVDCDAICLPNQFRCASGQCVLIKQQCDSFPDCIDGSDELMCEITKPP
Description: Y2H, growth on selective media. An excerpt: (§1) These clones were transformed into yeast and mated with each of three yeast strains containing pDBleu (Gibco/BRL), pDBleuLBD1, and pDBleuLBD4. Positive interactions were detected by growth of the hybrids on appropriate selective media.

In test [2] the target is T2, Zmax1/LRP5 ligand binding domain bait LBD4 (Arg1070-Pro1376) (human, UniProt O75197 1070-1376).
T2 construct: also called pDBleuLBD4; not shown: not described
T2 sequence: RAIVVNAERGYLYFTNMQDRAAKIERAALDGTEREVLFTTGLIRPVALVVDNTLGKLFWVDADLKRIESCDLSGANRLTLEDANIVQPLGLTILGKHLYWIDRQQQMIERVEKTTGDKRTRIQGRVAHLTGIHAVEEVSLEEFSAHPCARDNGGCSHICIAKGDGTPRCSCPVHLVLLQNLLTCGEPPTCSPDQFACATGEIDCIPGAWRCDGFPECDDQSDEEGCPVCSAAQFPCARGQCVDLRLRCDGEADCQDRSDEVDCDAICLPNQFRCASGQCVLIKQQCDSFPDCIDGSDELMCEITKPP
Nature of the test: Y2H, growth on selective media.
Excerpt: as §1

Test [3] deals with T3, LRP5LBD-LexA bait (human, UniProt O75197 969-1376, limits assumed).
T3 construct: Neither the limits of the LBD nor the order of the two parts is stated; also called LRP5 LBD fused with LexA; not shown: LexA
T3 sequence: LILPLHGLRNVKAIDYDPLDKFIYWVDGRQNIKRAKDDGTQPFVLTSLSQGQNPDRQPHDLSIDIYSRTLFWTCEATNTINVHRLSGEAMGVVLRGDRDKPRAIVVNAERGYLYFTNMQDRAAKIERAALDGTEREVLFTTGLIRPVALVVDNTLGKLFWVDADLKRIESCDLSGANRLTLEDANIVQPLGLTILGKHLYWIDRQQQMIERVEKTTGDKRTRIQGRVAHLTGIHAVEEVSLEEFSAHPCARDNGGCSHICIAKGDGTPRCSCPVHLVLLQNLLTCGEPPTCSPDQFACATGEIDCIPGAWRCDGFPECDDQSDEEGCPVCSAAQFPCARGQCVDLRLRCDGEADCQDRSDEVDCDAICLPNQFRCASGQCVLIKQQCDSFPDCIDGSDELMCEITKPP
Description: Y2H interaction trap, lacZ reporter under a single LexA operator. From the text: For example, the Interaction Trap methodology can be used as follows.

B1: Dkk-1 clone D4 (F1/R2: Asn34-Cys245) (ligand, not shown: large carriers)
chain: NSVLNSNAIKNLPPPLGGAAGHPGSAVSAAPGILYPGGNKYQTIDNYQPYPCAEDEECGTDEYCASPTRGGDAGVQICLACRKRRKRCMRHAMCCPGNYCKNGICVSSDQNHFRGEIEETITESFGNDHSTLDGYSRRTTLSSKMYHTKGQEGSVCLRSSDCASGLCCARHFWSKICKPVLKEGQVCTKHRRKGSHGLEIFQRCYCGEGLSC
Turning to B1, the binding result in test [1] and in test [2] was “binds” throughout.

B2: Dkk-1 clone D8 (F2/R2: Cys97-Cys245) (ligand, not shown: large carriers)
chain: CASPTRGGDAGVQICLACRKRRKRCMRHAMCCPGNYCKNGICVSSDQNHFRGEIEETITESFGNDHSTLDGYSRRTTLSSKMYHTKGQEGSVCLRSSDCASGLCCARHFWSKICKPVLKEGQVCTKHRRKGSHGLEIFQRCYCGEGLSC
In the case of B2, the binding result in test [1] and in test [2] was “binds” in each case.

B3: Dkk-1 clone isolated from the HOB03C5 osteoblast library (Gal4 activation domain fusion prey) (ligand, S. cerevisiae)
chain: ANFNQSGNIADSSLSFTFTNSSNGPNLITTQTNSQALSQPIASSNVHDNFMNNEITASKIDDGNNSKPLSPGWTDQTAYNAFGITTGMFNTTTMDDVYNYLFDDEDTPPNPKKETLNSVLNSNAIKNLPPPLGGAAGHPGSAVSAAPGILYPGGNKYQTIDNYQPYPCAEDEECGTDEYCASPTRGGDAGVQICLACRKRRKRCMRHAMCCPGNYCKNGICVSSDQNHFRGEIEETITESFGNDHSTLDGYSRRTTLSSKMYHTKGQEGSVCLRSSDCASGLCCARHFWSKICKPVLKEGQVCTKHRRKGSHGLEIFQRCYCGEGLSCRIQKDHHQASNSSRLHTCQRH
notes: also called Gal4AD-Dkk prey
On to B3, for which the “fold activation of lacZ reporter over the background” value in test [3] is above 20 fold.

B4: Dkk-1 clone D11 (F3/R2: Val139-Cys245) (ligand, not shown: large carriers)
chain: VSSDQNHFRGEIEETITESFGNDHSTLDGYSRRTTLSSKMYHTKGQEGSVCLRSSDCASGLCCARHFWSKICKPVLKEGQVCTKHRRKGSHGLEIFQRCYCGEGLSC
In the case of B4, the binding result in test [1] and in test [2] was “no binding” each time.

B5: Dkk-1 clone D3 (F1/R1: Asn34-Lys182) (ligand, not shown: large carriers)
chain: NSVLNSNAIKNLPPPLGGAAGHPGSAVSAAPGILYPGGNKYQTIDNYQPYPCAEDEECGTDEYCASPTRGGDAGVQICLACRKRRKRCMRHAMCCPGNYCKNGICVSSDQNHFRGEIEETITESFGNDHSTLDGYSRRTTLSSKMYHTK
Take B5: the binding result in test [1] and in test [2] was “no binding” each time.
